Experimental data from patent US20110118131A1 (published 2011).

Target: T1, IL-1β (UniProt P01584 117-269)
T1 construct: Antigen of XPA23
Test: Biacore, Fab periplasmic extract

fold difference in affinity against the original [fold]	Binder
0.02	XPA23 heavy chain P53G (Fab, V domains shown, Fab, periplasmic extract; also called C5A P53G) VH: EVQLLESGGGLVQPGGSLRLSCAASGFTFSKYFMFWVRQAPGKGLEWVSVISGSGGMTRYADSVKGRFTISRDNSKNTLYLQMNSLRAEDTAVYYCARVGYGGNSDYWGQGTLVTVSS VL: DIQMTQSPSSVSASVGDRLTIICRASQDINRWLAWYQQTPGNAPKLLIHSATSLQSGVPSRFSGSGSGTDFTLTINSLQPEDFATYYCQQADSFPLTFGGGTKVEIK
0.04	XPA23 heavy chain P53L (Fab, V domains shown, Fab, periplasmic extract; also called C5A P53L) VH: EVQLLESGGGLVQPGGSLRLSCAASGFTFSKYFMFWVRQAPGKGLEWVSVISLSGGMTRYADSVKGRFTISRDNSKNTLYLQMNSLRAEDTAVYYCARVGYGGNSDYWGQGTLVTVSS VL: DIQMTQSPSSVSASVGDRLTIICRASQDINRWLAWYQQTPGNAPKLLIHSATSLQSGVPSRFSGSGSGTDFTLTINSLQPEDFATYYCQQADSFPLTFGGGTKVEIK
1.1	XPA23 heavy chain P53V (Fab, V domains shown, Fab, periplasmic extract; also called C5A P53V) VH: EVQLLESGGGLVQPGGSLRLSCAASGFTFSKYFMFWVRQAPGKGLEWVSVISVSGGMTRYADSVKGRFTISRDNSKNTLYLQMNSLRAEDTAVYYCARVGYGGNSDYWGQGTLVTVSS VL: DIQMTQSPSSVSASVGDRLTIICRASQDINRWLAWYQQTPGNAPKLLIHSATSLQSGVPSRFSGSGSGTDFTLTINSLQPEDFATYYCQQADSFPLTFGGGTKVEIK
0.08	XPA23 heavy chain R59L (Fab, V domains shown, Fab, periplasmic extract; also called C5A R59L) VH: EVQLLESGGGLVQPGGSLRLSCAASGFTFSKYFMFWVRQAPGKGLEWVSVISPSGGMTLYADSVKGRFTISRDNSKNTLYLQMNSLRAEDTAVYYCARVGYGGNSDYWGQGTLVTVSS VL: DIQMTQSPSSVSASVGDRLTIICRASQDINRWLAWYQQTPGNAPKLLIHSATSLQSGVPSRFSGSGSGTDFTLTINSLQPEDFATYYCQQADSFPLTFGGGTKVEIK
0.03	XPA23 heavy chain S52G (Fab, V domains shown, Fab, periplasmic extract; also called C5A S52G) VH: EVQLLESGGGLVQPGGSLRLSCAASGFTFSKYFMFWVRQAPGKGLEWVSVIGPSGGMTRYADSVKGRFTISRDNSKNTLYLQMNSLRAEDTAVYYCARVGYGGNSDYWGQGTLVTVSS VL: DIQMTQSPSSVSASVGDRLTIICRASQDINRWLAWYQQTPGNAPKLLIHSATSLQSGVPSRFSGSGSGTDFTLTINSLQPEDFATYYCQQADSFPLTFGGGTKVEIK
0.91	XPA23 heavy chain S30L (Fab, V domains shown, Fab, periplasmic extract; also called C5A S30L) VH: EVQLLESGGGLVQPGGSLRLSCAASGFTFLKYFMFWVRQAPGKGLEWVSVISPSGGMTRYADSVKGRFTISRDNSKNTLYLQMNSLRAEDTAVYYCARVGYGGNSDYWGQGTLVTVSS VL: DIQMTQSPSSVSASVGDRLTIICRASQDINRWLAWYQQTPGNAPKLLIHSATSLQSGVPSRFSGSGSGTDFTLTINSLQPEDFATYYCQQADSFPLTFGGGTKVEIK
0.08	XPA23 heavy chain S30I (Fab, V domains shown, Fab, periplasmic extract; also called C5A S30I) VH: EVQLLESGGGLVQPGGSLRLSCAASGFTFIKYFMFWVRQAPGKGLEWVSVISPSGGMTRYADSVKGRFTISRDNSKNTLYLQMNSLRAEDTAVYYCARVGYGGNSDYWGQGTLVTVSS VL: DIQMTQSPSSVSASVGDRLTIICRASQDINRWLAWYQQTPGNAPKLLIHSATSLQSGVPSRFSGSGSGTDFTLTINSLQPEDFATYYCQQADSFPLTFGGGTKVEIK
0.77	XPA23 heavy chain S30A (Fab, V domains shown, Fab, periplasmic extract; also called C5A S30A) VH: EVQLLESGGGLVQPGGSLRLSCAASGFTFAKYFMFWVRQAPGKGLEWVSVISPSGGMTRYADSVKGRFTISRDNSKNTLYLQMNSLRAEDTAVYYCARVGYGGNSDYWGQGTLVTVSS VL: DIQMTQSPSSVSASVGDRLTIICRASQDINRWLAWYQQTPGNAPKLLIHSATSLQSGVPSRFSGSGSGTDFTLTINSLQPEDFATYYCQQADSFPLTFGGGTKVEIK
0.06	XPA23 heavy chain S30T (Fab, V domains shown, Fab, periplasmic extract; also called C5A S30T) VH: EVQLLESGGGLVQPGGSLRLSCAASGFTFTKYFMFWVRQAPGKGLEWVSVISPSGGMTRYADSVKGRFTISRDNSKNTLYLQMNSLRAEDTAVYYCARVGYGGNSDYWGQGTLVTVSS VL: DIQMTQSPSSVSASVGDRLTIICRASQDINRWLAWYQQTPGNAPKLLIHSATSLQSGVPSRFSGSGSGTDFTLTINSLQPEDFATYYCQQADSFPLTFGGGTKVEIK
1.04	XPA23 heavy chain R59G (Fab, V domains shown, Fab, periplasmic extract; also called C5A R59G) VH: EVQLLESGGGLVQPGGSLRLSCAASGFTFSKYFMFWVRQAPGKGLEWVSVISPSGGMTGYADSVKGRFTISRDNSKNTLYLQMNSLRAEDTAVYYCARVGYGGNSDYWGQGTLVTVSS VL: DIQMTQSPSSVSASVGDRLTIICRASQDINRWLAWYQQTPGNAPKLLIHSATSLQSGVPSRFSGSGSGTDFTLTINSLQPEDFATYYCQQADSFPLTFGGGTKVEIK
0.05	XPA23 heavy chain S52A (Fab, V domains shown, Fab, periplasmic extract; also called C5A S52A) VH: EVQLLESGGGLVQPGGSLRLSCAASGFTFSKYFMFWVRQAPGKGLEWVSVIAPSGGMTRYADSVKGRFTISRDNSKNTLYLQMNSLRAEDTAVYYCARVGYGGNSDYWGQGTLVTVSS VL: DIQMTQSPSSVSASVGDRLTIICRASQDINRWLAWYQQTPGNAPKLLIHSATSLQSGVPSRFSGSGSGTDFTLTINSLQPEDFATYYCQQADSFPLTFGGGTKVEIK
0.08	XPA23 heavy chain P53I (Fab, V domains shown, Fab, periplasmic extract; also called C5A P53I) VH: EVQLLESGGGLVQPGGSLRLSCAASGFTFSKYFMFWVRQAPGKGLEWVSVISISGGMTRYADSVKGRFTISRDNSKNTLYLQMNSLRAEDTAVYYCARVGYGGNSDYWGQGTLVTVSS VL: DIQMTQSPSSVSASVGDRLTIICRASQDINRWLAWYQQTPGNAPKLLIHSATSLQSGVPSRFSGSGSGTDFTLTINSLQPEDFATYYCQQADSFPLTFGGGTKVEIK
0.76	XPA23 heavy chain R59T (Fab, V domains shown, Fab, periplasmic extract; also called C5A R59T) VH: EVQLLESGGGLVQPGGSLRLSCAASGFTFSKYFMFWVRQAPGKGLEWVSVISPSGGMTTYADSVKGRFTISRDNSKNTLYLQMNSLRAEDTAVYYCARVGYGGNSDYWGQGTLVTVSS VL: DIQMTQSPSSVSASVGDRLTIICRASQDINRWLAWYQQTPGNAPKLLIHSATSLQSGVPSRFSGSGSGTDFTLTINSLQPEDFATYYCQQADSFPLTFGGGTKVEIK
0.13	XPA23 heavy chain S30G (Fab, V domains shown, Fab, periplasmic extract; also called C5A S30G) VH: EVQLLESGGGLVQPGGSLRLSCAASGFTFGKYFMFWVRQAPGKGLEWVSVISPSGGMTRYADSVKGRFTISRDNSKNTLYLQMNSLRAEDTAVYYCARVGYGGNSDYWGQGTLVTVSS VL: DIQMTQSPSSVSASVGDRLTIICRASQDINRWLAWYQQTPGNAPKLLIHSATSLQSGVPSRFSGSGSGTDFTLTINSLQPEDFATYYCQQADSFPLTFGGGTKVEIK
0.07	XPA23 heavy chain R59P (Fab, V domains shown, Fab, periplasmic extract; also called C5A R59P) VH: EVQLLESGGGLVQPGGSLRLSCAASGFTFSKYFMFWVRQAPGKGLEWVSVISPSGGMTPYADSVKGRFTISRDNSKNTLYLQMNSLRAEDTAVYYCARVGYGGNSDYWGQGTLVTVSS VL: DIQMTQSPSSVSASVGDRLTIICRASQDINRWLAWYQQTPGNAPKLLIHSATSLQSGVPSRFSGSGSGTDFTLTINSLQPEDFATYYCQQADSFPLTFGGGTKVEIK
